Measurements as given in PMC8041747.

Molecular target: full-length 13-lined ground squirrel TRPV1 (13-lined ground squirrel (Ictidomys tridecemlineatus))
Assay: cryo-EM structure; purified sqTRPV1 in 150 mM NaCl, 20 mM Tris pH 8.0, 1 mM βME, 0.01% GDN; apo, with 50 μM RTX or with 300 μM capsaicin

stoichiometry N: 4 subunits
Substance: full-length 13-lined ground squirrel TRPV1 (natural protein)
